T1: Peptide_053 (human)
T1 construct: 15-mer of hTrx1 on microarray
T1 peptide: KMIKPFFHSLSEKYS

T2: Peptide_046 (human)
T2 construct: 15-mer of hTrx1 on microarray
T2 peptide: ATWCGPCKMIKPFFH

T3: Peptide_054 (human)
T3 construct: 15-mer of hTrx1 on microarray
T3 peptide: MIKPFFHSLSEKYSN

T4: Peptide_050 (human)
T4 construct: 15-mer of hTrx1 on microarray
T4 peptide: GPCKMIKPFFHSLSE

T5: Peptide_056 (human)
T5 construct: 15-mer of hTrx1 on microarray
T5 peptide: KPFFHSLSEKYSNVI

T6: Peptide_057 (human)
T6 construct: 15-mer of hTrx1 on microarray
T6 peptide: PFFHSLSEKYSNVIF

T7: Peptide_052 (human)
T7 construct: 15-mer of hTrx1 on microarray
T7 peptide: CKMIKPFFHSLSEKY

T8: Peptide_048 (human)
T8 construct: 15-mer of hTrx1 on microarray
T8 peptide: WCGPCKMIKPFFHSL

T9: Peptide_049 (human)
T9 construct: 15-mer of hTrx1 on microarray
T9 peptide: CGPCKMIKPFFHSLS

T10: Peptide_055 (human)
T10 construct: 15-mer of hTrx1 on microarray
T10 peptide: IKPFFHSLSEKYSNV

T11: Peptide_047 (human)
T11 construct: 15-mer of hTrx1 on microarray
T11 peptide: TWCGPCKMIKPFFHS

T12: Peptide_094 (human)
T12 construct: 15-mer of hTrx1 on microarray
T12 peptide: FQFFKKGQKVGEFSG

T13: Peptide_022 (human)
T13 construct: 15-mer of hTrx1 on microarray
T13 peptide: IESKTAFQEALDAAG

T14: Peptide_085 (human)
T14 construct: 15-mer of hTrx1 on microarray
T14 peptide: ECEVKCMPTFQFFKK

T15: Peptide_084 (human)
T15 construct: 15-mer of hTrx1 on microarray
T15 peptide: SECEVKCMPTFQFFK

T16: Peptide_045 (human)
T16 construct: 15-mer of hTrx1 on microarray
T16 peptide: SATWCGPCKMIKPFF

T17: Peptide_013 (human)
T17 construct: 15-mer on microarray; not native form, includes recombinant insert region
T17 peptide: HHHHHHVKQIESKTA

T18: Peptide_021 (human)
T18 construct: 15-mer of hTrx1 on microarray
T18 peptide: QIESKTAFQEALDAA

T19: Peptide_014 (human)
T19 construct: 15-mer on microarray; not native form, includes recombinant insert region
T19 peptide: HHHHHVKQIESKTAF


Experiments:
Peptide_053 [1] = biological target: T1, Peptide_053; experiment: peptide microarray, head 0.08 ug (text 0.008 ug/mL)
Description: (§1) 5, 1, 0.2, 0.04, 0.008 and 0.0016 μg/mL serial dilutions were incubated on a single multi-well microarray slide at 30° C. for 1 hour. The slide includes 21 individual mini-arrays (one mini-array per sample dilution).
(§2) DyLight 650 was used as a label. False-positive binding to a peptide was evaluated by performing one additional control incubation in which only a secondary antibody was applied on the same microarray slide. Before performing each step, the microarrays were washed with a washing buffer.

Peptide_046 [2] = biological target: T2, Peptide_046; experiment: as above
Description: as §1, §2

Peptide_054 [3] = biological target: T3, Peptide_054; experiment: as above
Description: as §1, §2

Peptide_050 [4] = biological target: T4, Peptide_050; experiment: as above
Description: as §1, §2

Peptide_056 [5] = biological target: T5, Peptide_056; experiment: as above
Description: as §1, §2

Peptide_057 [6] = biological target: T6, Peptide_057; experiment: as above
Description: as §1, §2

Peptide_052 [7] = biological target: T7, Peptide_052; experiment: as above
Description: as §1, §2

Peptide_048 [8] = biological target: T8, Peptide_048; experiment: as above
Description: as §1, §2

Peptide_049 [9] = biological target: T9, Peptide_049; experiment: as above
Description: as §1, §2

Peptide_055 [10] = biological target: T10, Peptide_055; experiment: as above
Description: as §1, §2

Peptide_053 [11] = biological target: T1, Peptide_053; experiment: peptide microarray, 0.0016 ug/mL
Description: as §1, §2

Peptide_046 [12] = biological target: T2, Peptide_046; experiment: peptide microarray, 0.0016 ug/mL
Description: as §1, §2

Peptide_054 [13] = biological target: T3, Peptide_054; experiment: peptide microarray, 0.0016 ug/mL
Description: as §1, §2

Peptide_050 [14] = biological target: T4, Peptide_050; experiment: peptide microarray, 0.0016 ug/mL
Description: as §1, §2

Peptide_056 [15] = biological target: T5, Peptide_056; experiment: peptide microarray, 0.0016 ug/mL
Description: as §1, §2

Peptide_047 [16] = biological target: T11, Peptide_047; experiment: peptide microarray, 0.0016 ug/mL
Description: as §1, §2

Peptide_057 [17] = biological target: T6, Peptide_057; experiment: peptide microarray, 0.0016 ug/mL
Description: as §1, §2

Peptide_052 [18] = biological target: T7, Peptide_052; experiment: peptide microarray, 0.0016 ug/mL
Description: as §1, §2

Peptide_048 [19] = biological target: T8, Peptide_048; experiment: peptide microarray, 0.0016 ug/mL
Description: as §1, §2

Peptide_049 [20] = biological target: T9, Peptide_049; experiment: peptide microarray, 0.0016 ug/mL
Description: as §1, §2

Peptide_055 [21] = biological target: T10, Peptide_055; experiment: peptide microarray, 0.0016 ug/mL
Description: as §1, §2

Peptide_053 [22] = biological target: T1, Peptide_053; experiment: peptide microarray, 0.04 ug/mL
Description: as §1, §2

Peptide_046 [23] = biological target: T2, Peptide_046; experiment: peptide microarray, 0.04 ug/mL
Description: as §1, §2

Peptide_054 [24] = biological target: T3, Peptide_054; experiment: peptide microarray, 0.04 ug/mL
Description: as §1, §2

Peptide_050 [25] = biological target: T4, Peptide_050; experiment: peptide microarray, 0.04 ug/mL
Description: as §1, §2

Peptide_056 [26] = biological target: T5, Peptide_056; experiment: peptide microarray, 0.04 ug/mL
Description: as §1, §2

Peptide_047 [27] = biological target: T11, Peptide_047; experiment: peptide microarray, 0.04 ug/mL
Description: as §1, §2

Peptide_057 [28] = biological target: T6, Peptide_057; experiment: peptide microarray, 0.04 ug/mL
Description: as §1, §2

Peptide_052 [29] = biological target: T7, Peptide_052; experiment: peptide microarray, 0.04 ug/mL
Description: as §1, §2

Peptide_048 [30] = biological target: T8, Peptide_048; experiment: peptide microarray, 0.04 ug/mL
Description: as §1, §2

Peptide_049 [31] = biological target: T9, Peptide_049; experiment: peptide microarray, 0.04 ug/mL
Description: as §1, §2

Peptide_055 [32] = biological target: T10, Peptide_055; experiment: peptide microarray, 0.04 ug/mL
Description: as §1, §2

Peptide_094 = biological target: T12, Peptide_094; experiment: peptide microarray, 0.2 ug/mL
Description: as §1, §2

Peptide_022 = biological target: T13, Peptide_022; experiment: peptide microarray, 0.2 ug/mL
Description: as §1, §2

Peptide_085 = biological target: T14, Peptide_085; experiment: peptide microarray, 0.2 ug/mL
Description: as §1, §2

Peptide_084 = biological target: T15, Peptide_084; experiment: peptide microarray, 0.2 ug/mL
Description: as §1, §2

Peptide_045 = biological target: T16, Peptide_045; experiment: peptide microarray, 0.2 ug/mL
Description: as §1, §2

Peptide_013 = biological target: T17, Peptide_013; experiment: peptide microarray, 0.2 ug/mL
Description: as §1, §2

Peptide_021 = biological target: T18, Peptide_021; experiment: peptide microarray, 0.2 ug/mL
Description: as §1, §2

Peptide_014 = biological target: T19, Peptide_014; experiment: peptide microarray, 0.2 ug/mL
Description: as §1, §2

Row | Binder | signal (blank-control = 1) (Peptide_053 [1]) | signal (blank-control = 1) (Peptide_046 [2]) | signal (blank-control = 1) (Peptide_054 [3]) | signal (blank-control = 1) (Peptide_050 [4]) | signal (blank-control = 1) (Peptide_056 [5]) | signal (blank-control = 1) (Peptide_057 [6]) | signal (blank-control = 1) (Peptide_052 [7]) | signal (blank-control = 1) (Peptide_048 [8]) | signal (blank-control = 1) (Peptide_049 [9]) | signal (blank-control = 1) (Peptide_055 [10]) | signal (blank-control = 1) (Peptide_053 [11]) | signal (blank-control = 1) (Peptide_046 [12]) | signal (blank-control = 1) (Peptide_054 [13]) | signal (blank-control = 1) (Peptide_050 [14]) | signal (blank-control = 1) (Peptide_056 [15]) | signal (blank-control = 1) (Peptide_047 [16]) | signal (blank-control = 1) (Peptide_057 [17]) | signal (blank-control = 1) (Peptide_052 [18]) | signal (blank-control = 1) (Peptide_048 [19]) | signal (blank-control = 1) (Peptide_049 [20]) | also measured
1 | monoclonal antibody B266-1 (antibody, human IgG1, B266 with the Fc part changed to human IgG1; also called B266-1 (Trx1-hIgG1); B266-1 (hTrx1-hIgG1)) light: QIVLTQSPAIMSASPGEKVTMTCSASSRISYMYWYQQKPGTSPKRWIYDTSKLASGVPARFSGSGSGTSYSLTISTMEAEDAATYYCHQRSSYPTFGAGTKLELKSVAAPSVFIFPPSDEQLKSGTASVVCLLNNFYPREAKVQWKVDNALQSGNSQESVTEQDSKDSTYSLSSTLTLSKADYEKHKVYACEVTHQGLSSPVTKSFNRGEC heavy: not shown | 1.44 | 1.64 | 0.71 | 0.52 | 1.07 | 2.09 | 1.12 | 7.25 | 1.31 | 0.85 | 1.42 | 1.79 | 0.73 | 0.62 | 1.18 | 1.18 | 1.93 | 1.37 | 7.61 | 1.37 | signal (blank-control = 1) (Peptide_055 [21]): 1.05; signal (blank-control = 1) (Peptide_053 [22]): 1.35; signal (blank-control = 1) (Peptide_046 [23]): 1.96; signal (blank-control = 1) (Peptide_054 [24]): 0.71; signal (blank-control = 1) (Peptide_050 [25]): 0.68; signal (blank-control = 1) (Peptide_056 [26]): 1.11; signal (blank-control = 1) (Peptide_047 [27]): 1.5; signal (blank-control = 1) (Peptide_057 [28]): 1.87; signal (blank-control = 1) (Peptide_052 [29]): 1.23; signal (blank-control = 1) (Peptide_048 [30]): 6.57; signal (blank-control = 1) (Peptide_049 [31]): 1.51; signal (blank-control = 1) (Peptide_055 [32]): 1.41
2 | monoclonal antibody B264 (antibody, mouse IgG1, kappa, V domains shown, also called AB264; B264 (Trx1-mIgG1)) VH: QVQLQQSGAELARPGASVKMSCKASGYTFTSYTMHWVKQRPGQGLEWIGYINPTSDYTNYNQKFKDKATLTADKSSSTAYMQLSSLTSEDSAVYFCASEGGFLYYFDYWGQGTTLTVSS VL: DVLMTQTPLSLPVSLGDQASISCRSSQSIVHSNGNTYLEWYLQKPGQSPKLLIYKVSNRFSGVPDRFSGSGSGTDFTLKISRVEAEDLGVYYCFQGSHVPYTFGGGTKLEIKR | 1.76 | 2.11 | 0.63 | 0.65 | 1.11 | 2.27 | 1.23 | 7.68 | 1.43 | 0.99 | 1.41 | 1.69 | 0.55 | 0.51 | 0.99 | 1.15 | 1.73 | 1.15 | 7.46 | 1.18 | signal (blank-control = 1) (Peptide_055 [21]): 0.81; signal (blank-control = 1) (Peptide_094): 2.11; signal (blank-control = 1) (Peptide_022): 4.2; signal (blank-control = 1) (Peptide_085): 2.23; signal (blank-control = 1) (Peptide_084): 2.36; signal (blank-control = 1) (Peptide_045): 4.58; signal (blank-control = 1) (Peptide_013): 1.85; signal (blank-control = 1) (Peptide_021): 2.08; signal (blank-control = 1) (Peptide_014): 3.16; signal (blank-control = 1) (Peptide_053 [22]): 2.54; signal (blank-control = 1) (Peptide_046 [23]): 2.87; signal (blank-control = 1) (Peptide_054 [24]): 0.99; signal (blank-control = 1) (Peptide_050 [25]): 0.64; signal (blank-control = 1) (Peptide_056 [26]): 1.35; signal (blank-control = 1) (Peptide_047 [27]): 1.97; signal (blank-control = 1) (Peptide_057 [28]): 2.15; signal (blank-control = 1) (Peptide_052 [29]): 2.02; signal (blank-control = 1) (Peptide_048 [30]): 6.34; signal (blank-control = 1) (Peptide_049 [31]): 1.48; signal (blank-control = 1) (Peptide_055 [32]): 1.51

— patent US20240192215A1 (E AND S HEALTHCARE, published 2024)
